Legend:
human ACVR2A = molecular target: T1, human ACVR2A (human, UniProt P27037 20-135, limits assumed); assay: ELISA
T1 construct: coated antigen of the initial ELISA; also called activin receptor, type II A
Summary of the method: (§1)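 ELISA measured binding of ACVR2A-specific monoclonal antibodies to human and mouse ACVR2A. Biotinylated goat anti-human kappa light chain served as positive control and human Fc as negative control.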

mouse ACVR2A = molecular target: T2, mouse ACVR2A (mouse, UniProt P27038 20-135, limits assumed); assay: ELISA
T2 construct: coated antigen of the initial ELISA
Summary of the method: as §1

[1] = molecular target: T3, biotinylated goat anti-human kappa light chain; assay: ELISA, positive control
T3 construct: positive control of the ELISA
Summary of the method: as §1
Also: test concentration or dose not given here.

T1 sequence (P27037 20-135 limits assumed): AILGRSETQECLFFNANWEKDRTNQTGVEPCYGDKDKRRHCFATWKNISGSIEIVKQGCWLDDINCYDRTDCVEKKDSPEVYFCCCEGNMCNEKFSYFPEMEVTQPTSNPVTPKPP
T2 sequence (P27038 20-135 limits assumed): as the sequence (P27037 20-135 limits assumed) above, with K20R, V73I counted along it

| Binder | optical density (human ACVR2A) | optical density (mouse ACVR2A) | optical density [1] |
| --- | --- | --- | --- |
| 375_B12 (antibody, V domains shown, Group III) VH: EVQLLESGGGLVQPGGSLRLSCAASGFTFDSYSMNWVRQAPGKGLEWVAGINYNGGYKSYADSVKGRFTISRDNSKNTLYLQMNSLRAEDTAVYYCARGANWHDTALDYWGQGTLVTVSS VL: DIQMTQSPSSLSASVGDRVTITCRASQSIVTYLNWYQQKPGKAPKLLIYAATSRASGVPSRFSGSGSGTDFTLTISSLQPEDFATYYCQQSYDTPLTFGGGTKVEIK | 3.65 OD | 3.34 OD | 3.28 OD |
| 375_C04 (antibody, V domains shown, Group III) VH: EVQLLESGGGLVQPGGSLRLSCAASGFTFSDYSMNWVRQAPGKGLEWVAGINYNGGYTSYADSVKGRFTISRDNSKNTLYLQMNSLRAEDTAVYYCARGANWHDTALDYWGQGTLVTVSS VL: DIQMTQSPSSLSASVGDRVTITCRASQSILTYLNWYQQKPGKAPKLVIYAATSRASGVPSRFSGSGSGTDFTLTISSLQPEDFATYYCQQSYESPLTFGGGTKVEIK | 3.68 OD | 3.67 OD | 3.21 OD |
| 375_D01 (antibody, V domains shown, Group III) VH: EVQLLESGGGLVQPGGSLRLSCAASGFTFSSYSMNWVRQAPGKGLEWVSGINYNGGYTGYADSVKGRFTISRDNSKNTLYLQMNSLRAEDTAVYYCARGANWHDTALDYWGQGTLVTVSS VL: DIQMTQSPSSLSASVGDRVTITCRASQSILTYLNWYQQKPGKAPKLVIYAATSRASGVPSRFSGSGSGTDFTLTISSLQPEDFATYYCQQSYETPLTFGGGTKVEIK | 3.3 OD | 3.61 OD | 3.1 OD |
| 375_D10 (antibody, V domains shown, Group III) VH: EVQLLESGGGLVQPGGSLRLSCAASGFTFSSYSMNWVRQAPGKGLEWVAGINYNGGYTSYADSVKGRFTISRDNSKNTLYLQMNSLRAEDTAVYYCARGANWHDTALDYWGQGTLVTVSS VL: DIQMTQSPSSLSASVGDRVTITCRASQSILTYVNWYQQKPGKAPKLLIYAATSRASGVPSRFSGSGSGTDFTLTISSLQPEDFATYYCQQSDDSPLTFGGGTKVEIK | 3.26 OD | 3.45 OD | 3.21 OD |
| 375_E02 (antibody, V domains shown, Group III) VH: EVQLLESGGGLVQPGGSLRLSCAASGFTFSDYSMNWVRQAPGKGLEWVAGINYNGGYTSYADSVKGRFTISRDNSKNTLYLQMNSLRAEDTAVYYCARGANWHDTALDYWGQGTLVTVSS VL: DIQMTQSPSSLSASVGDRVTITCRASQSILTYLNWYQQKPGKAPKLLIYAATSRASGVPSRFSGSGSGTDFTLTISSLQPEDFATYYCQQSYSSPLTFGGGTKVEIK | 3.58 OD | 3.69 OD | 3.2 OD |
| 375_E03 (antibody, V domains shown, Group III) VH: EVQLLESGGGLVQPGGSLRLSCAASGFTFSDYSMNWVRQAPGKGLEWVANINYNGGYTGYADSVKGRFTISRDNSKNTLYLQMNSLRAEDTAVYYCARGANWHDTHLDYWGQGTLVTVSS VL: DIQMTQSPSSLSASVGDRVTITCRASQSILTYLNWYQQKPGKAPKLVIYAATSLASGVPSRFSGSGSGTDFTLTISSLQPEDFATYYCQQSYDNPLTFGGGTKVEIK | 3.57 OD | 3.64 OD | 3.18 OD |
| 375_E05 (antibody, V domains shown, Group III) VH: EVQLLESGGGLVQPGGSLRLSCAASGFTFSSYSMNWVRQAPGKGLEWVAGINYNGGYTSYADSVKGRFTISRDNSKNTLYLQMNSLRAEDTAVYYCARGANWHDTALDYWGQGTLVTVSS VL: DIQMTQSPSSLSASVGDRVTITCRASQSILSYLNWYQQKPGKAPKLVIYAATSLASGVPSRFSGSGSGTDFTLTISSLQPEDFATYYCQQSYSSPLTFGGGTKVEIK | 3.67 OD | 3.71 OD | 3.28 OD |
| 375_E06 (antibody, V domains shown, Group III) VH: EVQLLESGGGLVQPGGSLRLSCAASGFTFSSYSMNWVRQAPGKGLEWVSGINYNGGYKSYADSVKGRFTISRDNSKNTLYLQMNSLRAEDTAVYYCARGANWHDTALDYWGQGTLVTVSS VL: DIQMTQSPSSLSASVGDRVTITCRASQSILSYLNWYQQKPGKAPKLVIYAATSRASGVPSRFSGSGSGTDFTLTISSLQPEDFATYYCQQSYDSPLTFGGGTKVEIK | 3.85 OD | 3.67 OD | 3.33 OD |
| 375_F02 (antibody, V domains shown, Group III) VH: EVQLLESGGGLVQPGGSLRLSCAASGFTFSSYSMNWVRQAPGKGLEWVASINYNSGYTSYADSVKGRFTISRDNSKNTLYLQMNSLRAEDTAVYYCARGANWHDTHLDYWGQGTLVTVSS VL: DIQMTQSPSSLSASVGDRVTITCRASQSILSYLNWYQQKPGKAPKLLIYAATSRASGVPSRFSGSGSGTDFTLTISSLQPEDFATYYCQQSYDSPLTFGGGTKVEIK | 3.6 OD | 3.65 OD | 3.2 OD |
| 375_F07 (antibody, V domains shown, Group III) VH: EVQLLESGGGLVQPGGSLRLSCAASGFTFSDYSMNWVRQAPGKGLEWVSNINYNGGYTGYADSVKGRFTISRDNSKNTLYLQMNSLRAEDTAVYYCARGANWHDTALDYWGQGTLVTVSS VL: DIQMTQSPSSLSASVGDRVTITCRASQSILSYLNWYQQKPGKAPKLLIYAATSRASGVPSRFSGSGSGTDFTLTISSLQPEDFATYYCQQSYDSPLTFGGGTKVEIK | 3.67 OD | 3.71 OD | 3.22 OD |
| 375_F08 (antibody, V domains shown, Group III) VH: EVQLLESGGGLVQPGGSLRLSCAASGFTFSSYGMNWVRQAPGKGLEWVSSINYNSGYKSYADSVKGRFTISRDNSKNTLYLQMNSLRAEDTAVYYCARGANWHDTHLDYWGQGTLVTVSS VL: DIQMTQSPSSLSASVGDRVTITCRASQSILSYLNWYQQKPGKAPKLLIYAATSRHSGVPSRFSGSGSGTDFTLTISSLQPEDFATYYCQQSYDNPLTFGGGTKVEIK | 3.5 OD | 3.58 OD | 3.31 OD |
| 375_G04 (antibody, V domains shown, Group III) VH: EVQLLESGGGLVQPGGSLRLSCAASGFTFSSYGMNWVRQAPGKGLEWVASINYNSGYTGYADSVKGRFTISRDNSKNTLYLQMNSLRAEDTAVYYCARGANWHDTHLDYWGQGTLVTVSS VL: DIQMTQSPSSLSASVGDRVTITCRASQSIVSYVNWYQQKPGKAPKLLIYAATSLASGVPSRFSGSGSGTDFTLTISSLQPEDFATYYCQQSYDSPLTFGGGTKVEIK | 2.91 OD | 3.29 OD | 3.19 OD |
| 375_G05 (antibody, V domains shown, Group III) VH: EVQLLESGGGLVQPGGSLRLSCAASGFTFSSYSMNWVRQAPGKGLEWVAGINYNGGYTSYADSVKGRFTISRDNSKNTLYLQMNSLRAEDTAVYYCARGANWHDTALDYWGQGTLVTVSS VL: DIQMTQSPSSLSASVGDRVTITCRASQSIVSYLNWYQQKPGKAPKLLIYAVTSRASGVPSRFSGSGSGTDFTLTISSLQPEDFATYYCQQSYDSPLTFGGGTKVEIK | 3.71 OD | 3.75 OD | 3.26 OD |
| 375_H05 (antibody, V domains shown, Group III) VH: EVQLLESGGGLVQPGGSLRLSCAASGFTFSSYSMNWVRQAPGKGLEWVSNINYNGGYTGYADSVKGRFTISRDNSKNTLYLQMNSLRAEDTAVYYCARGANWHDTALDYWGQGTLVTVSS VL: DIQMTQSPSSLSASVGDRVTITCRASQSILSYVNWYQQKPGKAPKLLIYAATSRASGVPSRFSGSGSGTDFTLTISSLQPEDFATYYCQQSYDTPLTFGGGTKVEIK | 3.35 OD | 3.33 OD | 3.17 OD |
| 375_H07 (antibody, V domains shown, Group III) VH: EVQLLESGGGLVQPGGSLRLSCAASGFTFSSYSMNWVRQAPGKGLEWVAGINYNGGYTSYADSVKGRFTISRDNSKNTLYLQMNSLRAEDTAVYYCARGANWHDTALDYWGQGTLVTVSS VL: DIQMTQSPSSLSASVGDRVTITCRASQSILSYLNWYQQKPGKAPKLLIYAATSLASGVPSRFSGSGSGTDFTLTISSLQPEDFATYYCQQSYSSPLTFGGGTKVEIK | 3.3 OD | 3.29 OD | 3.27 OD |
| 376_A03 (antibody, V domains shown, Group III) VH: EVQLLESGGGLVQPGGSLRLSCAASGFTFSSYGMNWVRQAPGKGLEWVAGINYNGGYTGYADSVKGRFTISRDNSKNTLYLQMNSLRAEDTAVYYCARGANWHDTALDYWGQGTLVTVSS VL: DIQMTQSPSSLSASVGDRVTITCRASQSILTYLNWYQQKPGKAPKLLIYAATSRASGVPSRFSGSGSGTDFTLTISSLQPEDFATYYCQQSYSTPLTFGGGTKVEIK | 3.61 OD | 3.65 OD | 3.23 OD |
| 376_B03 (antibody, V domains shown, Group III) VH: EVQLLESGGGLVQPGGSLRLSCAASGFTFSSYSMNWVRQAPGKGLEWVAGINYNSGYKSYADSVKGRFTISRDNSKNTLYLQMNSLRAEDTAVYYCARGANWHDTALDYWGQGTLVTVSS VL: DIQMTQSPSSLSASVGDRVTITCRASQSILSYVNWYQQKPGKAPKLVIYAVTSRHSGVPSRFSGSGSGTDFTLTISSLQPEDFATYYCQQSYDSPLTFGGGTKVEIK | 3.68 OD | 3.67 OD | 3.52 OD |
| 376_B10 (antibody, V domains shown, Group III) VH: EVQLLESGGGLVQPGGSLRLSCAASGFTFSDYSMNWVRQAPGKGLEWVAGINYNGGYKGYADSVKGRFTISRDNSKNTLYLQMNSLRAEDTAVYYCARGANWHDTALDYWGQGTLVTVSS VL: DIQMTQSPSSLSASVGDRVTITCRASQSILSYLNWYQQKPGKAPKLVIYAATSLASGVPSRFSGSGSGTDFTLTISSLQPEDFATYYCQQSYSTPLTFGGGTKVEIK | 3.6 OD | 3.67 OD | 3.46 OD |
| 376_C04 (antibody, V domains shown, Group III) VH: EVQLLESGGGLVQPGGSLRLSCAASGFTFSSYGMNWVRQAPGKGLEWVSNINYNGGYTGYADSVKGRFTISRDNSKNTLYLQMNSLRAEDTAVYYCARGANWHDTALDYWGQGTLVTVSS VL: DIQMTQSPSSLSASVGDRVTITCRASQSILSYVNWYQQKPGKAPKLLIYAVTSRHSGVPSRFSGSGSGTDFTLTISSLQPEDFATYYCQQSYDNPLTFGGGTKVEIK | 3.63 OD | 3.65 OD | 3.4 OD |

— patent US20210380703A1 (RIGEL PHARMACEUTICALS, published 2021)
